Measurements from patent US20180155451A1 (published 2018).

Assays:
[1] = target: T1, FcγRIa (human, UniProt P12314 16-292); test: SPR (Biacore), antibody captured on antigen peptide chip, FcγRIa as analyte; relative binding amount
T1 construct: extracellular domain; also called FcgRI; CD64; not shown: C-terminal His tag
Protocol: (§1) Analysis of interaction between objective antibody and the FcγR was carried out using Biacore T100 (GE Healthcare). HBS-EP+ (GE Healthcare) was used as the running buffer, and the measurement temperature was set to 25° C. Chips produced by immobilizing the antigen peptide by the amine coupling method to a Series S Sencor Chip CM5 (GE Healthcare), or alternatively, chips produced by allowing preliminarily biotinylated antigen peptides to interact with and immobilize onto a Series S Sensor Chip SA (certified) (GE Healthcare) were used. Antibodies of interest were captured onto an antigen peptide-immobilized chip, and allowed to interact to each FcγR diluted with running buffer. To regenerate and repeatedly use the chip, the antibodies captured on the chip were washed off by reacting 10 mM glycine-HCl, pH 1.5.
T1 sequence (P12314 16-292): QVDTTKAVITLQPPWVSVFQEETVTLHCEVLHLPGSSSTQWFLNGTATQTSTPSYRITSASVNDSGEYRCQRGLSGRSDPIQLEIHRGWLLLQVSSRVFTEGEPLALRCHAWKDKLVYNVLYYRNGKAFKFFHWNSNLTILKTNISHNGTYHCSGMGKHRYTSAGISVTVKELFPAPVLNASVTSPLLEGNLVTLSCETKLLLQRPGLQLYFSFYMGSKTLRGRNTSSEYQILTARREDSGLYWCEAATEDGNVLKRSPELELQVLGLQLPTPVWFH

[2] = target: T2, FcγRIa (human, UniProt P12314 16-292); test: SPR (Biacore); He/Con_1a (FcgRIa) divided by He/Con_2b (FcgRIIb)
T2 construct: extracellular domain; also called FcgRI; FcgRIa
Procedure, shortened: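 Capture format: antigen peptide chip holds the antibody, FcγR diluted in HBS-EP+ is the analyte. Temperature 25 °C; regeneration by 10 mM glycine-HCl, pH 1.5.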
T2 sequence (P12314 16-292): as above

[3] = target: T3, FcγRIIb (human, UniProt P31994 43-217); test: SPR (Biacore), relative to GpH7-A5/GpH7-B3/GpL16-k0 = 100
T3 construct: extracellular domain; also called FcgRIIb; 2b
T3 sequence (looked up): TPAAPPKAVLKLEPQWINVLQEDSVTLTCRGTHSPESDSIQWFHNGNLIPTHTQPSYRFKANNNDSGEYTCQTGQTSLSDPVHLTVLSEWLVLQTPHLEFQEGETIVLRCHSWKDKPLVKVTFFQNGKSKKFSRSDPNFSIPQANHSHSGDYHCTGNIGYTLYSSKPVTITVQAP

[4] = target: T2, FcγRIa; test: as above
[5] = target: T4, FcγRIa extracellular domain with C-terminal His tag (human, UniProt P12314 16-292); test: SPR (Biacore); He/Con_1a divided by He/Con_2b (FcγRIIb)
T4 construct: extracellular domain; Soluble receptor expressed in FreeStyle293 cells; analyte in Biacore; also called FcgRI; FcgRIa; not shown: His tag at the C terminus
Protocol: (§2) The heterodimerized antibodies He Abs in which one of the H chains was introduced with an alteration were assayed for their binding activities to each activating FcγR and inhibitory FcγR according to the method described in Example 4. […] The activating FcγRs in FIGS. 26, 27, 28, and 29 are FcγRIa, FcγRIIa (R), FcγRIIa (H), and FcγRIIIa, respectively.
as §1

[6] = target: T4, FcγRIa extracellular domain with …; test: SPR (Biacore), antibody captured on antigen peptide chip, FcγR as analyte; binding relative to GpH7-A5/GpH7-B3/GpL16-k0 = 100
Protocol: as §2, §1

T4 sequence (P12314 16-292): as the sequence (P12314 16-292) above

B1: GpH7-B3 variant Y300_03V/GpL16-k0 (antibody, human IgG1, kappa)
heavy: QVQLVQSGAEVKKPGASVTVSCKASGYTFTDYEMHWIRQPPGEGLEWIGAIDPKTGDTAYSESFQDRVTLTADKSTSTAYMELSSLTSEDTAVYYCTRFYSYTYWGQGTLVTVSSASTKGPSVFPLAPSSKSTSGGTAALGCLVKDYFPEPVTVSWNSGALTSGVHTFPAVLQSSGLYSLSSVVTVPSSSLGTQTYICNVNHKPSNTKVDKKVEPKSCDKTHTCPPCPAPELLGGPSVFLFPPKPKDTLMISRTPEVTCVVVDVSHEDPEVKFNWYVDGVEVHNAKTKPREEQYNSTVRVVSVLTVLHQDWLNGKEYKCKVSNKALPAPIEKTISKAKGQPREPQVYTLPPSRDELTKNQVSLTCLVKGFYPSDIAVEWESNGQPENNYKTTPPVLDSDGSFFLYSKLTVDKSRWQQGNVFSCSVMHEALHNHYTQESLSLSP
light: DIVMTQSPLSLPVTPGEPASISCQASESLVHSNRNTYLHWYLQKPGQSPQLLIYKVSNRFSGVPDRFSGSGSGTDFTLKISRVEAEDVGVYYCSQNTHVPPTFGQGTKVEIERTVAAPSVFIFPPSDEQLKSGTASVVCLLNNFYPREAKVQWKVDNALQSGNSQESVTEQDSKDSTYSLSSTLTLSKADYEKHKVYACEVTHQGLSSPVTKSFNRGEC
notes: homodimerized IgG1; mutation in both H chains; also called Ho Ab
Ho/Con_1a [1]: 112 % of control (GpH7-B3/GpL16-k0 = 100)

B2: GpH7-B3 variant T335_16H/GpL16-k0 (antibody, human IgG1, kappa)
heavy: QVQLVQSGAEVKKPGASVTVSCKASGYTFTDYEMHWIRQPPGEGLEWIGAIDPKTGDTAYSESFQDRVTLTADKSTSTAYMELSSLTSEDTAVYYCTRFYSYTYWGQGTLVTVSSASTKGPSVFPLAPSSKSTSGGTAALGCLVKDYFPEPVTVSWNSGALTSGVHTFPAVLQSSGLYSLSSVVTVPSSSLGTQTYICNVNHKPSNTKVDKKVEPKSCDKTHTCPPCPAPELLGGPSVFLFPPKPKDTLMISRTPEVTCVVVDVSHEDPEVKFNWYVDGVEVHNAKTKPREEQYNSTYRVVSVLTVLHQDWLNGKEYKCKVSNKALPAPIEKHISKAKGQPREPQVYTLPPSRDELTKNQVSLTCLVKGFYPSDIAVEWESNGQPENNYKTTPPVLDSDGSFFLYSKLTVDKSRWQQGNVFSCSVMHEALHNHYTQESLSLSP
light: B1 light
notes: as for B1
Ho/Con_1a [1]: 104 % of control (GpH7-B3/GpL16-k0 = 100)

B3: GpH7-A5/GpH7-B3 variant Y300_20W/GpL16-k0 (antibody, human IgG1, kappa)
heavy 1: not shown
heavy 2: not shown
light: B1 light
notes: heterodimerized IgG1, one H chain mutated; also called He Ab
Ia/IIb He_1a/2b [2]: 1.34 | He/Con_2b (IIb binding) [3]: 84.1 relative (control = 100) | He/Con_1a (Ia binding) [4]: 112 relative (control = 100)

B4: GpH7-B3 variant Y296_18N/GpL16-k0 (antibody, human IgG1, kappa)
heavy: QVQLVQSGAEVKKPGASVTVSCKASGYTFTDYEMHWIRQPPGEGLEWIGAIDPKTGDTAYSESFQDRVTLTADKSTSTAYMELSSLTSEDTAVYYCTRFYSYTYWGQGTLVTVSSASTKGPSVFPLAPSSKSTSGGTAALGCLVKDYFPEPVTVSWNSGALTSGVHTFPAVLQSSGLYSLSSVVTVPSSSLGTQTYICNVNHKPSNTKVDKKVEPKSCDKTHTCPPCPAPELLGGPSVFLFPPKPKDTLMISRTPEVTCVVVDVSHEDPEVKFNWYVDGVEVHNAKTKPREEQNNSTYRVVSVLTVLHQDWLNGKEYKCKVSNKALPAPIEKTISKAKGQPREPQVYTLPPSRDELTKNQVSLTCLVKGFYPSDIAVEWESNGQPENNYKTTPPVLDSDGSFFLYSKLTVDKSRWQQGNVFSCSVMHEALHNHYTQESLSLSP
light: B1 light
notes: as for B1
Ho/Con_1a [1]: 105 % of control (GpH7-B3/GpL16-k0 = 100)

B5: GpH7-B3 variant Y300_02A/GpL16-k0 (antibody, human IgG1, kappa)
heavy: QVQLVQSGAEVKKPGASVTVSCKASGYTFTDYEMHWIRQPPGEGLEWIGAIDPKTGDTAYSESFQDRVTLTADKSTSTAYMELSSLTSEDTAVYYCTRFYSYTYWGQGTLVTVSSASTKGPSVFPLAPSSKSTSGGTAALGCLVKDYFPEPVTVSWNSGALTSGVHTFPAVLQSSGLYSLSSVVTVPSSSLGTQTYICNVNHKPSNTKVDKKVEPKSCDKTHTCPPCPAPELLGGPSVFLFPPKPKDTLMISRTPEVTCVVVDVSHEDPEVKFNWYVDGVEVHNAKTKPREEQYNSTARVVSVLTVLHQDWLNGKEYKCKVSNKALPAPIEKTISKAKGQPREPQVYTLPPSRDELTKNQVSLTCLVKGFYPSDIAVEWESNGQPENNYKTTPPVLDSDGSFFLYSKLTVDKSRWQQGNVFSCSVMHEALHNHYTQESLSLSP
light: B1 light
notes: as for B1
Ho/Con_1a [1]: 110 % of control (GpH7-B3/GpL16-k0 = 100)

B6: GpH7-A5/GpH7-B3 variant Y296_06M/GpL16-k0 (antibody, human IgG1, kappa)
heavy 1: not shown
heavy 2: not shown
light: B1 light
notes: heterodimerized IgG1; mutation in one H chain only; also called He Ab
He/Con_1a [1]: 104 % of control (GpH7-A5/GpH7-B3/GpL16-k0 = 100)

B7: GpH7-A5/GpH7-B3 variant Y296_11K/GpL16-k0 (antibody, human IgG1, kappa)
heavy 1: not shown
heavy 2: not shown
light: B1 light
notes: as for B6
He/Con_1a [1]: 105 % of control (GpH7-A5/GpH7-B3/GpL16-k0 = 100)

B8: GpH7-B3 variant Y296_20W/GpL16-k0 (antibody, human IgG1, kappa)
heavy: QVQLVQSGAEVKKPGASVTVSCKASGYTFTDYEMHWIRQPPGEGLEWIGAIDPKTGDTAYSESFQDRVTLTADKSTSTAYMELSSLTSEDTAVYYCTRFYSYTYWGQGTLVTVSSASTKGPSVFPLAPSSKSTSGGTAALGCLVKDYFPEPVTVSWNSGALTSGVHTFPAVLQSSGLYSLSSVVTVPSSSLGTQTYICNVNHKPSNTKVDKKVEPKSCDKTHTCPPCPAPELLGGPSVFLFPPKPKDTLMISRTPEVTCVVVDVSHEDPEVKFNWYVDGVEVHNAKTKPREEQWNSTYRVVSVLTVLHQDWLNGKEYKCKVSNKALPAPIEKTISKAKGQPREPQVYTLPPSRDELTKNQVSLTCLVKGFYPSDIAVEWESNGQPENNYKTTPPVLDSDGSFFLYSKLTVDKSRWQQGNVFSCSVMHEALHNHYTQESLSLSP
light: B1 light
notes: as for B1
Ho/Con_1a [1]: 106 % of control (GpH7-B3/GpL16-k0 = 100)

B9: GpH7-A5/GpH7-B3 variant T335_19Q/GpL16-k0 (antibody, human IgG1, kappa)
heavy 1: not shown
heavy 2: not shown
light: B1 light
notes: as for B6
He/Con_1a [1]: 105 % of control (GpH7-A5/GpH7-B3/GpL16-k0 = 100)

B10: GpH7-A5/GpH7-B3 variant T335_18N/GpL16-k0 (antibody, human IgG1, kappa)
heavy 1: not shown
heavy 2: not shown
light: B1 light
notes: as for B6
He/Con_1a [1]: 106 % of control (GpH7-A5/GpH7-B3/GpL16-k0 = 100)

B11: GpH7-A5/GpH7-B3 variant Y300_12R/GpL16-k0 (antibody, human IgG1, kappa)
heavy 1: not shown
heavy 2: not shown
light: B1 light
notes: as for B3
Ia/IIb He_1a/2b [2]: 2.54 | He/Con_2b (IIb binding) [3]: 41.2 relative (control = 100) | He/Con_1a (Ia binding) [4]: 105 relative (control = 100)

B12: GpH7-B3 variant T335_18N/GpL16-k0 (antibody, human IgG1, kappa)
heavy: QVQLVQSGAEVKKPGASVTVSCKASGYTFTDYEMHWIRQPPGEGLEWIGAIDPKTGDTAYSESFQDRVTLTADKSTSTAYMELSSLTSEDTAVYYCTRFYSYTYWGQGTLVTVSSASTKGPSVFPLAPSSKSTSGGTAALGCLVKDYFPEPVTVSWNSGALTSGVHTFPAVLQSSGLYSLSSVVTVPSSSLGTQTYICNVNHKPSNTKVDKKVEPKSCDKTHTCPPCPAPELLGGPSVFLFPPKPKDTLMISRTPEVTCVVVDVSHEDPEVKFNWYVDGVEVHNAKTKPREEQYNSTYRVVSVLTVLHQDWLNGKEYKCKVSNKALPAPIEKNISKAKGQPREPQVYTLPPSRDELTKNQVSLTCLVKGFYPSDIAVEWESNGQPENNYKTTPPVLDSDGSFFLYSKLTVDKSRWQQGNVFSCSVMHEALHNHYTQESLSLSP
light: B1 light
notes: as for B1
Ho/Con_1a [1]: 102 % of control (GpH7-B3/GpL16-k0 = 100)

B13: GpH7-B3 variant Y296_11K/GpL16-k0 (antibody, human IgG1, kappa)
heavy: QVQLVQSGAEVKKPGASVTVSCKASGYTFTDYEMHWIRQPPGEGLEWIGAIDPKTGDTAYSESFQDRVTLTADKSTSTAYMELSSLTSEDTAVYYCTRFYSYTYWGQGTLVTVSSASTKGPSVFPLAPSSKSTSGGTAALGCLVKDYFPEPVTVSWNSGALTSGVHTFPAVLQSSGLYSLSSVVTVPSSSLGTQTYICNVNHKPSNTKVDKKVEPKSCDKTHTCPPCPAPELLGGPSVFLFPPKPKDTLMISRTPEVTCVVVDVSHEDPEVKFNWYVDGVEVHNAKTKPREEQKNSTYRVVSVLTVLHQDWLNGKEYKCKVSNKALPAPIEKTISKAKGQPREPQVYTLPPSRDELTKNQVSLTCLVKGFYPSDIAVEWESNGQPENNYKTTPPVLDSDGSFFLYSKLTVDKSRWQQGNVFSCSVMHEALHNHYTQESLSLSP
light: B1 light
notes: as for B1
Ho/Con_1a [1]: 102 % of control (GpH7-B3/GpL16-k0 = 100)

B14: GpH7-B3 variant Y296_12R/GpL16-k0 (antibody, human IgG1, kappa)
heavy: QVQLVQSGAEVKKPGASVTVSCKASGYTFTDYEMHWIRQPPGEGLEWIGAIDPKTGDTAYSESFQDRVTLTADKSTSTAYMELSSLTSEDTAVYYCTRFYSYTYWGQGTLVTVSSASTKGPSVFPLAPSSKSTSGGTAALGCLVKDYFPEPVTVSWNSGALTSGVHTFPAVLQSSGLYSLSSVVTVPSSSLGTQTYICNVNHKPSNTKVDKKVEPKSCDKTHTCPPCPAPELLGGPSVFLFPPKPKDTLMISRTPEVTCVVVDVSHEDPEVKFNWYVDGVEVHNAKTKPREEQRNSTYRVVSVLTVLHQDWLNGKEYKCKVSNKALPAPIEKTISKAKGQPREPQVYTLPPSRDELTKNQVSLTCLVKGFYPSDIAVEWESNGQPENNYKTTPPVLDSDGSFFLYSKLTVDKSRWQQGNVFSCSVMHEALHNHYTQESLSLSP
light: B1 light
notes: as for B1
Ho/Con_1a [1]: 103 % of control (GpH7-B3/GpL16-k0 = 100)

B15: GpH7-A5/GpH7-B3 variant Y300_11K/GpL16-k0 (antibody, human IgG1, kappa)
heavy 1: not shown
heavy 2: not shown
light: B1 light
notes: as for B3
Ia/IIb He_1a/2b [2]: 2.07 | He/Con_2b (IIb binding) [3]: 51.6 relative (control = 100) | He/Con_1a (Ia binding) [4]: 107 relative (control = 100)

B16: GpH7-A5/GpH7-B3 variant Y300_14T/GpL16-k0 (antibody, human IgG1, kappa)
heavy 1: not shown
heavy 2: not shown
light: B1 light
notes: as for B3
Ia/IIb He_1a/2b [2]: 2.01 | He/Con_2b (IIb binding) [3]: 55.6 relative (control = 100) | He/Con_1a (Ia binding) [4]: 112 relative (control = 100)

B17: GpH7-A5/GpH7-B3 variant L328_12R/GpL16-k0 (antibody, human IgG1, kappa)
heavy 1: not shown
heavy 2: not shown
light: B1 light
notes: He Ab: heterodimerized anti-glypican-3 IgG1, substitution in one H chain only; also called He Ab L328R
He_1a/2b (Ia/IIb) [5]: 8.51 | He/Con_1a (Ia binding) [6]: 78.6 % of control (control = 100)

B18: GpH7-A5/GpH7-B3 variant Y300_16H/GpL16-k0 (antibody, human IgG1, kappa)
heavy 1: not shown
heavy 2: not shown
light: B1 light
notes: as for B3
Ia/IIb He_1a/2b [2]: 1.27 | He/Con_2b (IIb binding) [3]: 87 relative (control = 100) | He/Con_1a (Ia binding) [4]: 111 relative (control = 100)

B19: GpH7-A5/GpH7-B3 variant Y296_12R/GpL16-k0 (antibody, human IgG1, kappa)
heavy 1: not shown
heavy 2: not shown
light: B1 light
notes: as for B6
He/Con_1a [1]: 106 % of control (GpH7-A5/GpH7-B3/GpL16-k0 = 100)

B20: GpH7-B3 variant Y300_20W/GpL16-k0 (antibody, human IgG1, kappa)
heavy: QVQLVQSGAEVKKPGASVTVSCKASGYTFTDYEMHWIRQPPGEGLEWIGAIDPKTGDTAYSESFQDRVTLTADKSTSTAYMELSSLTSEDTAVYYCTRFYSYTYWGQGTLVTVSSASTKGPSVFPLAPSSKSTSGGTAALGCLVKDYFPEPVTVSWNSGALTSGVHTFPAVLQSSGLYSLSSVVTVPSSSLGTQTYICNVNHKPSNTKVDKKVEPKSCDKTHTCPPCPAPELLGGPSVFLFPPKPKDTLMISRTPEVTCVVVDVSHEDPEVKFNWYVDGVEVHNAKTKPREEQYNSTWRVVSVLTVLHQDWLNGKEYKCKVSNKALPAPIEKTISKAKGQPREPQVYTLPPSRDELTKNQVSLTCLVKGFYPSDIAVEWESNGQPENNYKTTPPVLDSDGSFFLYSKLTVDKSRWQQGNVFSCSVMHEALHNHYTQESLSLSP
light: B1 light
notes: as for B1
Ho/Con_1a [1]: 110 % of control (GpH7-B3/GpL16-k0 = 100)

B21: GpH7-B3 variant Y296_10E/GpL16-k0 (antibody, human IgG1, kappa)
heavy: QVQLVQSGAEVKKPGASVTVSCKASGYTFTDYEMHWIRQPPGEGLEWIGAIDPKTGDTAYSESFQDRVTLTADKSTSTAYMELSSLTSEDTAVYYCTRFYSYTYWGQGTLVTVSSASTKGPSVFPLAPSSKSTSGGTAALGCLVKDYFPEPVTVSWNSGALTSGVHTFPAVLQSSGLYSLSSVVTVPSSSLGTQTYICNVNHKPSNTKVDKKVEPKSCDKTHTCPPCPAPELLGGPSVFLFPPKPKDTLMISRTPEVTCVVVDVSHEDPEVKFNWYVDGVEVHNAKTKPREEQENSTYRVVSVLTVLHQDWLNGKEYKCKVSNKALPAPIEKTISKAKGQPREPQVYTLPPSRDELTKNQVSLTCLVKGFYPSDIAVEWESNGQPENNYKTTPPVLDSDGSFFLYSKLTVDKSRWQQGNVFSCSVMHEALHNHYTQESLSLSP
light: B1 light
notes: as for B1
Ho/Con_1a [1]: 106 % of control (GpH7-B3/GpL16-k0 = 100)

B22: GpH7-B3 variant Y300_06M/GpL16-k0 (antibody, human IgG1, kappa)
heavy: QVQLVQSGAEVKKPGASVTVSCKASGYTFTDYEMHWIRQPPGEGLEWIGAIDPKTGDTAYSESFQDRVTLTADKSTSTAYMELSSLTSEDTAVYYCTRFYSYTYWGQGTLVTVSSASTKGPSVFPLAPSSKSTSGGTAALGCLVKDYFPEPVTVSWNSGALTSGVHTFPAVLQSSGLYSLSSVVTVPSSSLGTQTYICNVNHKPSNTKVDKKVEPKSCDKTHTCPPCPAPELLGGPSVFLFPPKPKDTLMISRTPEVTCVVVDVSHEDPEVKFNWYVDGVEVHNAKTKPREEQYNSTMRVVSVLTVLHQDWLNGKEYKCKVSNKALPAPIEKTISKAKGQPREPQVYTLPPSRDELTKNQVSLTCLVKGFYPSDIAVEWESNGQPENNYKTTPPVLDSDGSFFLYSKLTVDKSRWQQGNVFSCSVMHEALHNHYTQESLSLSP
light: B1 light
notes: as for B1
Ho/Con_1a [1]: 111 % of control (GpH7-B3/GpL16-k0 = 100)
